Test results from article doi:10.1101/2022.08.17.504309.

Biological target: C-type lectin domain of CD62P (P-selectin), residues 1-117, wild type (UniProt P16109)
Test: ELISA

UniProt P16109, sequence (P16109 42-158): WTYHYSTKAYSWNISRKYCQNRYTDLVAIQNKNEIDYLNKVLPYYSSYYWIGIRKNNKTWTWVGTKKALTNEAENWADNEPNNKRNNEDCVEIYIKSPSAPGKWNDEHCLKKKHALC

fold binding against the combined lectin and EGF-like domains	Substance
2 fold	soluble recombinant integrin αIIbβ3 (from UniProt P08514;P05106) (complex)
2 fold	soluble integrin αvβ3 (from UniProt P06756;P05106) (complex)
